Experiments:
[1] = biological target: HIV-1 JR2 F673L mutant Env (trimer of gp120-gp41 heterodimers) on pseudotyped virus (HIV-1 (isolate JR2))
[2] = biological target: HIV-1 JR2 wild type Env (trimer of gp120-gp41 heterodimers) on pseudotyped virus (HIV-1 (isolate JR2))

Substance: C34 peptide
- IC50 of neutralization of pseudotyped virus (single cycle entry assay, TZM-bl cells); C34 acts on the NHR of gp41 [1]: 0.9 µg/mL
- IC50 of neutralization of pseudotyped virus (single cycle entry assay, TZM-bl cells); C34 acts on the NHR of gp41 [2]: 1.2 µg/mL

From article PMC4110039
